Source: the nanobody polyreactivity screen of Harvey et al. (2022)

Assay: yeast display, Sf9 membrane polyspecificity reagent, FACS + sequencing; frameworks hold sequencing errors
In short: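 Synthetic nanobody libraries on Saccharomyces cerevisiae BJ5465 were galactose-induced for 36–48 hours, stained 1 hour at 4 °C with 10% biotinylated, detergent-solubilized Sf9 membrane reagent and enriched on streptavidin microbeads. FACS then separated cells into low and high (top ~1%) gates by anti-HA (expression) and streptavidin (reagent binding) fluorescence. Genes were colony-PCR amplified, MiSeq 2 × 250 sequenced and CDR-length filtered. A clone's polyreactivity label is that of its gate of origin.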

Row | Sequence | polyreactivity (PSR sort gate)
1 | QVQLVESGGGLVQAGGRLRLSSAASGFIFYYYAMGWYREAPGKERELVAAISTDGGSTFYADSVKGRFTISRDNAKNTVYLQMNSLKPEDTAVYYCNAPYYGWGYWPLEYIRYEYWGQGTQVTVSS | low polyreactivity
2 | QVQLVESGGGLVQAGGRLRLSSAASGSTFGYYAMGWYRQAPGKERELVAAISAGGGSTYYADSVKGRFTISRDNAKNTVYLQMISLKPEDTAVYYCAARGPHIPVKTYDYWGQGTQVTVSS | high polyreactivity
3 | QVQLVESGGGLVQAGGRLRLTCAASARTIVLNPMGWYRQAPGKERELVAAISSGGSTNYADSVKGRFTISRDNAKNTVYLQMNSLNPEDTAVYYCAGQDVNLYSAYYYWGQGTQVTVSS | low polyreactivity
4 | QVQLVESGGGLVQAGGRLRLTCAASGCTFFTNSMGWYRQAPGKERELFGAITVSGSTYYADSVKGRFTFSRDNAKNTVYLQMNSLNPEDTAVYYCAAVFWRRQYGYYIFTTLDYWGHGTQVTVSS | high polyreactivity
5 | QVQLVESGGGLVQAGGRLRLTCAASGLTFERHAMGWYSQARGKERDVVAAWSGGGTYYADSVKGRFTISRDNAKNTVYLHLNSLKPQDTAVYYCAADYRYYLSIGVNSWGQGTQVTVSS | low polyreactivity
6 | QVQLVESGGGLVQAGGRLRLTCAASGSIFGSYAMGWYRQEPGIERELVAAIRGRGGNTYYADSVKGRFTISRDNAKNTVYLQMNSLKPQDTAVYYCAAQSFAQYGWRYGYWGQGTQVTLSS | high polyreactivity
7 | QVQLVESGGGLVQAGGRLRVSCAASGRTFYYYGMGWYRQAPGKESELVATISWSGGSTYYADSVKGRFTISRDNAKNTVYLQMNSLKPEDTEVYYCAADGQFLYDHIEVDYWGQGTQVTVSS | low polyreactivity
8 | QVQLVESGGGLVQAGGSDRLSCAASGNTFYPNAMGWYRPAPGKERELVAAITTSGGTTYYADSVKGRFTISRDNAKNTVYLQMNSLKPEDTAVYYCAAYWSRDKYDYWGQGTQVTVSS | low polyreactivity
9 | QVQLVESGGGLVQAGGSFRLTCAASGRIFSPNAMGWYRQATGKEREFVAAINDRGGNTYYADSVKGRFTISRDNAKNTVYLQMNSLKPEDTAVYYCAATVTVFYTRYYYWGQGTQVTVSS | high polyreactivity
10 | QVQLVESGGGLVQAGGSHRFSCAASGFTVWEYAMGLYRQAPGKERELVAAISRGTSTYYADSVKGRFTISRDNAKNTVYLQMNSLKPEDTAVYYCAAAPSYYPARHGYWGQGSQVTVSS | low polyreactivity
11 | QVQLVESGGGLVQAGGSHRLICAASGSTFNFNVMGWYRQEPGKERELDAAISSSGGNTYYADSVKGRFTISRDNAKNTVYLQMNSLKPEDTAVYYCADEYEEWYSVFLYDYWGQGTQVTVSS | high polyreactivity
12 | QVQLVESGGGLVQAGGSHRLRCAASGRIFWSNTMGWYRQAPGKERELVAAISGRGGSTYYADSVKGRFTISRDNAKNTVYLQMNSLKPEDTAVYYCAARYPAYYEAYDYWGQGTQVTVSS | low polyreactivity
13 | QVQLVESGGGLVQAGGSHRLRCAAYGFIFIYAMGRYRQAPGKQRELVASIESGVSTDYADSVKGRFTISRDNAKNSVYFQMNSLKQEDTAVYYCAADQWSSLNYDYWGQGSQVTVSS | low polyreactivity
14 | QVQLVESGGGLVQAGGSHRLSCAASGFIFRWYAMGWYRQAPGKERELVAAISRSGDSTYYADSVKGRFTISRDNAKNTVYLQMNSLKPDDTAVYYCAADDRYYTYGYDYWGQGTQVTVSS | low polyreactivity
15 | QVQLVESGGGLVQAGGSHRLSCAASGFTFGRYPMGWYRQAPGKERELVAAISSSGSSTYYSDSVKGRFTISRDNAKNTVYLQMNSLKQEDTAVYYCAAAIYVSDRHTYNYWGQGSQVTVSS | high polyreactivity
16 | QVQLVESGGGLVQAGGSHRLSCAASGFTFTHYPMGWYRQAPGKERELVAAISTSGGSTYYADSVKGRFTISRDNAKNSVYLQMNSLKPEDTAVYYCAARRDGWVQWGYYYWGQGTQVTVSS | low polyreactivity
17 | QVQLVESGGGLVQAGGSHRLSCAASGIIFRGYPMGWYRPAPGIERELVASITRRRGSTRYADSVKGRFTISRDNAKNTVYLQMNSLKPEDTAVYYCAAVGVGKTSTAYGYWGQGTQVTVSS | high polyreactivity
18 | QVQLVESGGGLVQAGGSHRLSCAASGLTFRRNAMGWYRQAPGKERELVAAISGSGGSTYYADSVKGRFTISRDNAKNTVYLQMNSLKPEDTAVYYCAADDGIVAYGYWGQGTQVTVSS | high polyreactivity
19 | QVQLVESGGGLVQAGGSHRLSCAASGLTLQRYTLGSYRQAPGKQSELVAAISRSGGGTYYADSVKGRFTISRDNAKNTVYLQMNSVKPEDTAVYYCAARGYTSYKHFGYWGQGTQVTVSS | high polyreactivity
20 | QVQLVESGGGLVQAGGSHRLSCAASGRIFAHNAMGWYSQAPGKERELVAAITWSGGSTYYADSVKGRFTISRDNAKNTVYLQMNSLKPEDTAVYYCNTDSHGHLYNYWGQGTQVTVSS | low polyreactivity
21 | QVQLVESGGGLVQAGGSHRLSCAASGRIFALNAMGWYRQAPGKERELVDAIDTSSGDTYYADSVKGRFTISRDNAKNTVNLQMNCLKPEDTAVYYCAAEGLSPYAYVFSNYDYWGQGTQVTVSS | low polyreactivity
22 | QVQLVESGGGLVQAGGSHRLSCAASGRIFGTYTMGWYRHAPGKERELVASIRFGGSTYYADSVKGRYTISRDNAKNTVYLQMNSLKPEDTAVYYCNRVYGYNRRYGYWGQGTQVTVSS | high polyreactivity

Row | Sequence | polyreactivity (PSR sort gate)
23 | QVQLVESGGGLVQAGGSHRLSCAASGRIFSDYAMGWYRQAPGKERELVAAITRDGSTNYADSVKGLFTISRDNAKNTVYLQLNSLKPEDTAVYYCAAEGRRGGKDYDYWGQGTQVTVSS | high polyreactivity
24 | QVQLVESGGGLVQAGGSHRLSCAASGRIFSPYAMGWYRRAPGKERELVAAISYDDGITYYADSVKGRFTISRDNAKNTVYLQMNSLKPEDTAVYYCAADCVTRPAGDYWGQGTQVTVSS | low polyreactivity
25 | QVQLVESGGGLVQAGGSHRLSCAASGRIIWWYAMGWYRQAPGKEREFVASISSTGSTSYADSVKGRFTISRDNAKITVYFQMNILKPEDTAVYYCAKEGIRHQDYNLSNDYWGQGTHVTVSS | low polyreactivity
26 | QVQLVESGGGLVQAGGSHRLSCAASGRTFGYYAMGWYRQAPGKEREFVAAISWSGGSTYYADTVKGRFTISRDNAKNTVYLEMNSLKPEYTAVYYCATDTTYYAGSWYGYWGQGTQVTVSS | low polyreactivity
27 | QVQLVESGGGLVQAGGSHRLSCAASGSIFLFNAMGWYRQAPGKERELVAAITSPTARTYYADSVKGRFTISRDIAKNTVYLQMNSLKPEDTAVYYCAARYRYAYGYGRGYSWGQGTQVTVSS | high polyreactivity
28 | QVQLVESGGGLVQAGGSHRLSCAASGSIFNLYTMGWYIQAPGKERELVAAIRWSGGRTYYADSVKGRFTISRDNAKNTVYLQMNSLKAEDTAVYYCAVRRVVARYDHWGQGTQVTVSS | low polyreactivity
29 | QVQLVESGGGLVQAGGSHRLSCAASGSIFPSYAKGWYRQAPGKERELVATIGRGGTTNYADSVKGRFTISRDNAKNTVYLQMNSLKPEDTAVYYCNAERIWRYKYGYDYWGQGTQVTVSS | high polyreactivity
30 | QVQLVESGGGLVQAGGSHRLSCAASGSIFTAYALGWYRQATGKARELVAAIDVSGDSTYYADSVKGRFTISRDNAKKTVYLQMNSLKPEDTAVYYCKAEYRVNKEYDYWGQGTQVTVSS | low polyreactivity
31 | QVQLVESGGGLVQAGGSHRLSCAASGSIFYAYAMGWYRQAPGKERELVAAITGSGGRTYYADSVKGRFTISRDNAKNTVYLQMNSLKPEDTAVYYCNAYYYRGSSYGYWGQGTQVTVSS | high polyreactivity
32 | QVQLVESGGGLVQAGGSHRLSCAASGSIFYYYTMGWYRQAPGKERELVASITGGGSTYYADSVKGRFTISRDHAKNTVYLQMNSLKPEDTAVYYCAAYSLRPRWRREYDYWGQGTQVTVSS | high polyreactivity
33 | QVQLVESGGGLVQAGGSHRLSCAASGSTFDYYAMGWYRQAPGKEREFVASINWNGARTYYADSVKGRFTNSRDNAKNTVYLQMNSLKPEDTAVYYCAKISRTYYRYDYWGQGTQVTVSS | high polyreactivity
34 | QVQLVESGGGLVQAGGSHRLSCAASGSTFRYYPMGWYRQAPGKERELVARITSRAGRTYYADSVKGRFTISRDNAKNTVYLQMNSVKPEDTAVYYCNANRFRRYDWGQGTQVTVSS | high polyreactivity
35 | QVQLVESGGGLVQAGGSHRLSCAASGSTFSWNTMGWYRQAPGKERELVASITRSDGSTYADSEKGRFTISRDNAKNTVYLQMNSLKPEDTAVYYCNADPYLYLYLNYDYWGQGTQVTVSS | low polyreactivity
36 | QVQLVESGGGLVQAGGSHRLSCAASGSTLSSYAMGWYRQAPGKERELVAAISSSSGSTYYADSVKGRFTISRDNAKNTVYLQMNSLKPEDTAVYYCAADFRYWGQGTQVTVSS | low polyreactivity
37 | QVQLVESGGGLVQAGGSHRLSCAASGTTIDYYAMGWYRQAPGKERELVAAISWSGGSTYYADSVKGRFTFSRDNAKNTVYLQMNSLKPEDTAVYYCAADSAFYTGSDYGWSDYDYWGQGTQVTVSS | low polyreactivity
38 | QVQLVESGGGLVQAGGSHRLSCAASGYTFARNAMGCDRQAPGKDRELVAAINWSGTNTYYADSVKGRFTISRDSAMNTVYLQMNSLKPEDTAVYYCAKDLYFSGYEFDYWGQGTQVTVSS | low polyreactivity
39 | QVQLVESGGGLVQAGGSHRLSCAASGYTFARYAMGWYRQAPGKERELVAAISRSGGGTYYADSVKGRFTISRDNAKNTVYLQMNSLKPEDTAVYYCATDRVQGLGRFDYWGQGTQVTVSS | high polyreactivity
40 | QVQLVESGGGLVQAGGSHRLSCAATGIIFARNAMGWYRQAPGKERELVAGINGGRTNYADSVKGRFTISRDNAKNTVYLQMNSLKPEDTAVYYCAARLGRVKYDHWGQGTQVTVSS | high polyreactivity
41 | QVQLVESGGGLVQAGGSHRLSCDASGRIFGPYAMGWYRQAPGKESELVATISWRGARTYYADSVKGRFTISRDNAKNTVYLQMNSLKPEDTAVDYCAATFYYSARFDYWGQGTQVTVSS | high polyreactivity
42 | QVQLVESGGGLVQAGGSHRLSCSASGRIFGLYAMGWYRQAPGKERELVAAITSSTGSTYYADSVKGRFTISRDNAKNTVYLQMNSLKPEDTAVYYCAADLYSPSIYGYIYYTWLDYWGQGTQVTVSS | high polyreactivity
43 | QVQLVESGGGLVQAGGSHRLSSAASARTFQDNPMGWYRQAPGKERELVAAISWRGGSTNYADSVKGRFTITRDNAKNTVYLQMNSLKPEDTAVYYCTRDRRKYGKLDYWGQGTQVTVSS | low polyreactivity
